pyrene = pyrene fluorescent label
Biological target: T1, Aβ42 oligomers (Homo sapiens (Human), UniProt P05067 672-713)
T1 construct: also called oligomers of Aβ42 (including dimers, trimers, tetramers, hexamers and 12-mers); oligomeric forms of Aβ42
Assay: pyrene excimer fluorescence, excitation 350 nm, scan 360-600 nm

T1 sequence (P05067 672-713 limits assumed): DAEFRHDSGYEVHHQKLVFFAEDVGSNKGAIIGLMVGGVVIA

B1: Peptide probe specific for Aβ (SEQ ID NO:36) labeled at each terminus with pyrene (peptide)
peptide: pyrene-KLVFFAEDVGSNKGAIIGLM-pyrene
notes: also called Aβ peptide probe; dipyrene labeled peptide probe
  binding result: binds

From patent US20130108549A1 (ADLYFE, published 2013)
